Earlier results as cited in publication PMC4954776.

Molecular target: BRAF kinase domain 448-723 (Homo sapiens) (UniProt P15056)
Experiment: sedimentation equilibrium

Chain of BRAF kinase domain 448-723 (P15056 448-723): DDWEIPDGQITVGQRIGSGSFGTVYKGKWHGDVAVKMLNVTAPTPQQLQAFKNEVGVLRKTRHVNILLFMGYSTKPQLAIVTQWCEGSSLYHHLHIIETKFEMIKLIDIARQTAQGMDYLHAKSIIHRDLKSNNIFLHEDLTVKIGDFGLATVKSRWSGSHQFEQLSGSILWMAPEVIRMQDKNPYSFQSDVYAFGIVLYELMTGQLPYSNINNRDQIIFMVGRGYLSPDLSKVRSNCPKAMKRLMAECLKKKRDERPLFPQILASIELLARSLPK

Kd: < 6.25 µM
Substance: BRAF kinase domain 448-723 (from UniProt P15056)
